Data reported in publication PMC6468047, “Cannabinoid CB1 and CB2 Receptor-Mediated Arrestin Translocation: Species, Subtype, and Agonist-Dependence” (Frontiers in Pharmacology, 2019).

Columns and labels:
[1] = molecular target: T1, CB2 (hCB2) (Homo sapiens, UniProt P34972); test: BRET human β-arrestin-2 plasma membrane translocation; type: cell-based; details: read-out: CB2 / logEC50 ± SEM (converted)
T1 construct: gene CNR2; 3HA-hCB2 in pEF4a: N-terminal 3xHA tag, untagged C-terminus; transient in HEK-293 with Rluc8-arrestin and mem-linker-Citrine reporters
T1 sequence (P34972 whole entry): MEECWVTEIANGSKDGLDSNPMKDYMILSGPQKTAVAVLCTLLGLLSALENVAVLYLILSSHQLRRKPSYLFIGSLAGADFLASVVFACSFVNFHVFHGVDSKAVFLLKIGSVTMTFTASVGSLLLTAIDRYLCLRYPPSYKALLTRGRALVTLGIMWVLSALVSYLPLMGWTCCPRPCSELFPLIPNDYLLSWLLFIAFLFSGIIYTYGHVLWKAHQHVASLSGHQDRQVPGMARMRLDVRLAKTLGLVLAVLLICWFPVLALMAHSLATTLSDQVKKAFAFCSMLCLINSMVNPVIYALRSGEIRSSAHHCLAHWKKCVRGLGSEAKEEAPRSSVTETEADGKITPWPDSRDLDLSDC

[2] = molecular target: T1, CB2 (hCB2); test: BRET human β-arrestin-1 plasma membrane translocation; type: cell-based; details: 10 µM; HEK-293, 37 °C, single concentration 10 μM, no GRK2 co-expression
Text: BRET human β-arrestin-1 plasma membrane translocation on CB2 (hCB2)

[3] = molecular target: human D2 dopamine receptor (3HA-hD2R) (human) (UniProt P14416)
Sequence of human D2 dopamine receptor (3HA-hD2R) (human) (P14416 whole entry): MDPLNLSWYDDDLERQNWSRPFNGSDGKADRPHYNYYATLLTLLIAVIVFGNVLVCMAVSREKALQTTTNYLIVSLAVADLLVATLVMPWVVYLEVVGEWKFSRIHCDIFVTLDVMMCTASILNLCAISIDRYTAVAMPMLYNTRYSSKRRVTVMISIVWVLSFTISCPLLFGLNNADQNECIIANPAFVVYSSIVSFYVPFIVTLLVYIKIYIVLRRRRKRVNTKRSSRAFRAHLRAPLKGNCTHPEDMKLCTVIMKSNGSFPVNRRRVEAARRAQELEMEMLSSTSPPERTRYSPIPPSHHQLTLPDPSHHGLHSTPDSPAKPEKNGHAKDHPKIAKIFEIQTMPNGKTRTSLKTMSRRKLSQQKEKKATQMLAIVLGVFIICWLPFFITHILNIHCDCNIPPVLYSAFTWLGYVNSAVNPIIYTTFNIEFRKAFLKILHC

[4] = molecular target: human vasopressin receptor 2 (3HA-hV2R) (human) (UniProt P30518)
[5] = molecular target: human cannabinoid receptor 1 (pplss-3HA-hCB1) (human) (UniProt P21554)
Sequence of human cannabinoid receptor 1 (pplss-3HA-hCB1) (human) (P21554 whole entry): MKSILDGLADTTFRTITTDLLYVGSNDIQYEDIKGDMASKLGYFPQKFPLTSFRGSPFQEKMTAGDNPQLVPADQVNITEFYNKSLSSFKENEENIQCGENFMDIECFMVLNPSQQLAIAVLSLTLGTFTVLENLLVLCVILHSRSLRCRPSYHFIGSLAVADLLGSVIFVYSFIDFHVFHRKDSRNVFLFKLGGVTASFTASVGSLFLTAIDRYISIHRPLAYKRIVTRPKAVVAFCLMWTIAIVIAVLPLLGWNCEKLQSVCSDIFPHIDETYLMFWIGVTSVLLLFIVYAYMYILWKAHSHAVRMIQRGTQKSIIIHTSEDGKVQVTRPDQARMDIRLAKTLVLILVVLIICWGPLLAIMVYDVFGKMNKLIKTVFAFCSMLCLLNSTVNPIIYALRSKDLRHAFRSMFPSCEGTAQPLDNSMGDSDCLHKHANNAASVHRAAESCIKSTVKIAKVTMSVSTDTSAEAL

[6] = molecular target: human cannabinoid receptor 2 (3HA-hCB2) (human) (UniProt P34972)
Sequence of human cannabinoid receptor 2 (3HA-hCB2) (human) (P34972 whole entry): as the sequence (P34972 whole entry) above

Sequence of bovine β-arrestin-1 (Rluc8-bβ-arrestin-1-Sp1) (P17870 whole entry): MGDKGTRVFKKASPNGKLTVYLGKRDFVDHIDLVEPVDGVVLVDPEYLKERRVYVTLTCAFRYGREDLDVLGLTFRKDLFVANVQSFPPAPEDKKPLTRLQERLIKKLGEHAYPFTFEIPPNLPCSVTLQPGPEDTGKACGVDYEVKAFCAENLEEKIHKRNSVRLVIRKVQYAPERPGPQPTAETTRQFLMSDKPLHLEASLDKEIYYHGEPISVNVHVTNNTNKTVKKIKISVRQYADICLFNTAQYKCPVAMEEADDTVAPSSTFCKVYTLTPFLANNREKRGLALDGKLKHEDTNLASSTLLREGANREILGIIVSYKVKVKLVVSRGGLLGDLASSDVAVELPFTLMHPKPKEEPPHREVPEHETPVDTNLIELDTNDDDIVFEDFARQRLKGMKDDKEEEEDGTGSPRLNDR

For `CCCCC/C=C\C/C=C\C/C=C\C/C=C\CCCC(=O)OC(CO)CO` [2-AG], which EC50 [1] is on record?
The EC50 was 1860 nM.

How did the “CB2 / Response ± SEM (ΔBRET.sec)” value [2] turn out when `CCCCCc1cc(O)c2c(c1)OC(C)(C)[C@@H]1CCC(C)=C[C@@H]21` [THC] was run?
Its value is 14.4 ± 2.8 ΔBRET.sec.

For “bovine β-arrestin-1 (Rluc8-bβ-arrestin-1-Sp1) (from UniProt P17870 1-418) (natural protein)”, which Response, arrestin translocation to the plasma membrane (BRET, AUC of 25 min); 10 μM dopamine [3] is on record?
The Response, arrestin translocation to the plasma membrane (BRET, AUC of 25 min); 10 μM dopamine was 23.4 ΔBRET.sec.

And the Response, arrestin translocation to the plasma membrane (BRET, AUC of 25 min); 10 μM dopamine; GRK2 co-expressed [3]?
Its Response, arrestin translocation to the plasma membrane (BRET, AUC of 25 min); 10 μM dopamine; GRK2 co-expressed is 95 ΔBRET.sec.

What about the Emax, arrestin translocation to the plasma membrane (BRET, AUC of 25 min); agonist AVP [4] of the same compound?
The Emax, arrestin translocation to the plasma membrane (BRET, AUC of 25 min); agonist AVP was 177 ΔBRET.sec.

And the Response, arrestin translocation to the plasma membrane (BRET, AUC of 25 min); 1 μM CP55,940 (significantly different from vehicle) [5]?
The Response, arrestin translocation to the plasma membrane (BRET, AUC of 25 min); 1 μM CP55,940 (significantly different from vehicle) was 20.8 ΔBRET.sec.

And the Response, arrestin translocation to the plasma membrane (BRET, AUC of 25 min); 1 μM CP55,940; GRK2 co-expressed (significantly different from vehicle) [5]?
Its Response, arrestin translocation to the plasma membrane (BRET, AUC of 25 min); 1 μM CP55,940; GRK2 co-expressed (significantly different from vehicle) is 44.4 ΔBRET.sec.

What about the Response, arrestin translocation to the plasma membrane (BRET, AUC of 25 min); 10 μM AEA (no significant response) [5] of the same compound?
The Response, arrestin translocation to the plasma membrane (BRET, AUC of 25 min); 10 μM AEA (no significant response) was 6.9 ΔBRET.sec.

And the Response, arrestin translocation to the plasma membrane (BRET, AUC of 25 min); 10 μM BAY (no significant response) [5]?
The Response, arrestin translocation to the plasma membrane (BRET, AUC of 25 min); 10 μM BAY (no significant response) was 0.7 ΔBRET.sec.

And the Response, arrestin translocation to the plasma membrane (BRET, AUC of 25 min); 10 μM THC (no significant response) [5]?
The Response, arrestin translocation to the plasma membrane (BRET, AUC of 25 min); 10 μM THC (no significant response) was 6.5 ΔBRET.sec.

And the Response, arrestin translocation to the plasma membrane (BRET, AUC of 25 min); 10 μM WIN55,212-2 (significantly different from vehicle) [5]?
The Response, arrestin translocation to the plasma membrane (BRET, AUC of 25 min); 10 μM WIN55,212-2 (significantly different from vehicle) was 48.5 ΔBRET.sec.

And the Response, arrestin translocation to the plasma membrane (BRET, AUC of 25 min); 31.6 μM 2-AG (significantly different from vehicle) [5]?
Its Response, arrestin translocation to the plasma membrane (BRET, AUC of 25 min); 31.6 μM 2-AG (significantly different from vehicle) is 33.7 ΔBRET.sec.

And the Response, arrestin translocation to the plasma membrane (BRET, AUC of 25 min); 31.6 μM 2-AG; GRK2 co-expressed (significantly different from vehicle) [5]?
The Response, arrestin translocation to the plasma membrane (BRET, AUC of 25 min); 31.6 μM 2-AG; GRK2 co-expressed (significantly different from vehicle) was 49.1 ΔBRET.sec.

What about the Response, arrestin translocation to the plasma membrane (BRET, AUC of 25 min); 1 μM CP55,940 (significantly different from vehicle) [6] of the same compound?
The Response, arrestin translocation to the plasma membrane (BRET, AUC of 25 min); 1 μM CP55,940 (significantly different from vehicle) was 21.5 ΔBRET.sec.

And the Response, arrestin translocation to the plasma membrane (BRET, AUC of 25 min); 1 μM CP55,940; GRK2 co-expressed (significantly different from vehicle) [6]?
Its Response, arrestin translocation to the plasma membrane (BRET, AUC of 25 min); 1 μM CP55,940; GRK2 co-expressed (significantly different from vehicle) is 29 ΔBRET.sec.

And the Response, arrestin translocation to the plasma membrane (BRET, AUC of 25 min); 10 μM JWH-015 (not significantly different from vehicle) [6]?
The Response, arrestin translocation to the plasma membrane (BRET, AUC of 25 min); 10 μM JWH-015 (not significantly different from vehicle) was 14.2 ΔBRET.sec.

And the Response, arrestin translocation to the plasma membrane (BRET, AUC of 25 min); 10 μM JWH-133 (not significantly different from vehicle) [6]?
The Response, arrestin translocation to the plasma membrane (BRET, AUC of 25 min); 10 μM JWH-133 (not significantly different from vehicle) was 7.4 ΔBRET.sec.

And the Response, arrestin translocation to the plasma membrane (BRET, AUC of 25 min); 10 μM THC (not significantly different from vehicle) [6]?
Its Response, arrestin translocation to the plasma membrane (BRET, AUC of 25 min); 10 μM THC (not significantly different from vehicle) is 10.8 ΔBRET.sec.

And the Response, arrestin translocation to the plasma membrane (BRET, AUC of 25 min); 10 μM WIN55,212-2 (significantly different from vehicle) [6]?
The Response, arrestin translocation to the plasma membrane (BRET, AUC of 25 min); 10 μM WIN55,212-2 (significantly different from vehicle) was 22.2 ΔBRET.sec.

What about the Response, arrestin translocation to the plasma membrane (BRET, AUC of 25 min); 31.6 μM 2-AG (not significantly different from vehicle) [6] of the same compound?
The Response, arrestin translocation to the plasma membrane (BRET, AUC of 25 min); 31.6 μM 2-AG (not significantly different from vehicle) was 14.2 ΔBRET.sec.

And the Response, arrestin translocation to the plasma membrane (BRET, AUC of 25 min); 31.6 μM 2-AG; GRK2 co-expressed (significantly different from vehicle) [6]?
Its Response, arrestin translocation to the plasma membrane (BRET, AUC of 25 min); 31.6 μM 2-AG; GRK2 co-expressed (significantly different from vehicle) is 17.5 ΔBRET.sec.
